Experimental findings from patent CN114685664A (UNIV INNER MONGOLIA AGRI, dated 2022) are described below.

The target in assay [1] is T1, 人CD20胞外区多肽 (human).
T1 construct: Synthetic 47-residue peptide of the extracellular region of human CD20 (Sangon); also called CD20多肽; CD20抗原
T1 peptide: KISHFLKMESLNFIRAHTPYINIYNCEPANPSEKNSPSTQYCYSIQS
The experiment in a line: phage ELISA, CD20 extracellular peptide coated at 2.5 μg/mL, OD450. A general note: ELISA stands for enzyme-linked immunosorbent assay.

The target of assay [2] is T2, Raji细胞表面CD20蛋白 (human, UniProt P11836 1-297).
T2 construct: whole, on cells; Raji cells used as CD20-positive cells; also called Raji细胞表面CD20分子
T2 sequence (looked up): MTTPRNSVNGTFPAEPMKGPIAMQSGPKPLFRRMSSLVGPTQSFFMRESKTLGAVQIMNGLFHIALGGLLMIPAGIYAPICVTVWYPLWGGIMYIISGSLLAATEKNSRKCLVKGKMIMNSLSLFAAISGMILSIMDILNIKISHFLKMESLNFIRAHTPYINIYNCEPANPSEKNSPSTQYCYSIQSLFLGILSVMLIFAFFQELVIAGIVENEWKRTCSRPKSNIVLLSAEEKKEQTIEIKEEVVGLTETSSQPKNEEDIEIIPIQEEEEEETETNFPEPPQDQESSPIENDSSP
The experiment in a line: immunofluorescence on fixed Raji cells, sdAb 10 μg/mL, fluorescent anti-His detection.

In assay [3] the target is T1, 人CD20胞外区多肽. The assay is described as follows: ELISA, CD20 extracellular peptide coated at 2.5 μg/mL, BsNb 30 to 5 μg/mL, HRP anti-His detection, OD450.
Assay [4] concerns the target T2, Raji细胞表面CD20蛋白. The assay is described as follows: flow cytometry, FITC-labelled BsNb 100 μg/mL on Raji cells.

B1: sdAb11 (抗CD20单域重链抗体) (VHH)
VHH: DVQLVESGGGLVQPGGSLRLSCTAPGFTSNNCGMDWWRQAAGKQREWVSSIATDGSTSYADSVKGRFTISKDKAKDTVFLQMNSLKPEDTAMYNCAMRRWGWGCLGRLWQSDFGYWGQGTQVTVSS
notes: Expressed in E. coli BL21(DE3) from VHH-pET-25b-SBP and purified on Ni-NTA; also called CD20单域抗体; Anti-CD20 sdAb; not shown: tags from vector pET-25b-SBP (His tag detected with anti-His antibody; SBP)
On to B1, for which the binding result in assay [1] and in assay [2] was “binds” in each case.

B2: Anti-CD20/CD3 BsNb (bispecific antibody)
chain: EVQLLEEVQLVESGGGLVQPGGSLRLSCAASGFTFDDYGMSWVRQAPGKWLEWVSDISWNGGSTYYADSVKGRFTISRDNAENTLYLQMNSLKPDDTAVYYCAKMGEGGWGANDYWGQGTQVTVSSSGGGGSGGGGSGGGGSMAQVQLQMADVQLVESGGGLVQPGGSLRLSCTAPGFTSNNCGMDWWRQAAGKQREWVSSIATDGSTSYADSVKGRFTISKDKAKDTVFLQMNSLKPEDTAMYNCAMRRWGWGCLGRLWQSDFGYWGQGTQVTVSS
notes: Single chain: anti-CD20 sdAb, linker, anti-CD3 sdAb; also called CD20 sdAb-linker-CD3 sdAb; 抗CD20和CD3双特异性单域抗体
For B2, the binding result in assay [3] and in assay [4] was “binds” each time.
